This data set concerns the molecule itself. Nature of the data set: native gel or EMSA.

B1: Human butyrylcholinesterase (enzyme, UniProt P06276 29-602, looked up)
chain: EDDIIIATKNGKVRGMNLTVFGGTVTAFLGIPYAQPPLGRLRFKKPQSLTKWSDIWNATKYANSCCQNIDQSFPGFHGSEMWNPNTDLSEDCLYLNVWIPAPKPKNATVLIWIYGGGFQTGTSSLHVYDGKFLARVERVIVVSMNYRVGALGFLALPGNPEAPGNMGLFDQQLALQWVQKNIAAFGGNPKSVTLFGESAGAASVSLHLLSPGSHSLFTRAILQSGSFNAPWAVTSLYEARNRTLNLAKLTGCSRENETEIIKCLRNKDPQEILLNEAFVVPYGTPLSVNFGPTVDGDFLTDMPDILLELGQFKKTQILVGVNKDEGTAFLVYGAPGFSKDNNSIITRKEFQEGLKIFFPGVSEFGKESILFHYTDWVDDQRPENYREALGDVVGDYNFICPALEFTKKFSEWGNNAFFYYFEHRSSKLPWPEWMGVMHGYEIEFVFGLPLERRDNYTKAEEILSRSIVKRWANFAKYGNPNETQNNSTSWPVFKSTEQKYLTLNTESTRIMTKLRAQQCRFWTSFFPKVLEMTGNIDEAEWEWKAGFHRWNNYMMDWKNQFNDYTSKKESCVGL
notes: also called BChE; C4 (tetramer)
Usually stoichiometry N stands for the number of molecules, sites or subunits per partner or assembly. In the case of B1, the “stoichiometry N” value came to 4.

For the origin of these results see publication PMC9838835 (PLOS ONE, 2023).
